{
  "source": "patent US20110112037A1",
  "about": "“CRYSTAL STRUCTURE” (Heptares Therapeutics Limited BioPark, priority 2008, published 2011)",
  "key": {"m23 mutant receptor": {"target": "m23 mutant receptor (Meleagris gallopavo, UniProt P07700, A282L/F327A/F338M/M90V/R68S/Y227A)", "sequence (P07700 whole entry R68S/M90V/Y227A/A282L/F327A/F338M)": "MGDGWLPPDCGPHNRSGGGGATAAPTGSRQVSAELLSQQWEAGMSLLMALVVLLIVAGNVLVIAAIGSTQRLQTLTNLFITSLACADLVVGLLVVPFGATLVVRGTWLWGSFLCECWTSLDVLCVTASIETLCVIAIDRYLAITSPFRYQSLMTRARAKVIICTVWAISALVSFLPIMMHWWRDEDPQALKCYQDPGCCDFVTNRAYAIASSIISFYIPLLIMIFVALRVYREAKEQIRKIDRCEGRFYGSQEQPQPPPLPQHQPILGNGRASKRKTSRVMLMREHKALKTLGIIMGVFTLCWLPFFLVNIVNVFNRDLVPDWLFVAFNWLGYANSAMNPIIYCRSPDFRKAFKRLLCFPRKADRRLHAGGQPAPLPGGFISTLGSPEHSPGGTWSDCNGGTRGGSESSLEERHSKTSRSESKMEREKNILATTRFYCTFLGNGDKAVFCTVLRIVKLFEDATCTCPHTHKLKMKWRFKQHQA", "settings": "FIG. 11"}, "physchem": {"experiment": "physchem", "type": "physicochemical", "settings": "aqueous buffer"}, "[1]": {"experiment": "Thermal stability of β1AR point mutants (Table 3) and of β1-m23 in detergent", "type": "physicochemical, turkey", "settings": "β1AR alanine mutants in CL2", "excerpt": "Short-chain detergents, such as nonyl- and octyl-glucosides, are the best choice for crystallisation of small membrane proteins, but β1 was unstable in them and precipitated upon detergent exchange (Warne et al 2003). We therefore expressed β1 in an Escherichia coli expression system (Grisshammer et al) and evolved it into a conformationally thermostabilised form (β1-m23) that is stable even in short-chain detergents (Serrano PNAS). […] The receptor construct that crystallised (FIG. 1) has deletions at the N-terminus, C-terminus and in cytoplasmic loop 3 to remove regions that were predicted to be unstructured (Warne et al 2003). It also contains 8 point mutations, 6 for thermostabilisation (R68^1.59S, M90^2.52V, Y227^5.58A, A282^6.27L, F327^7.38A, F338^7.49M), one for improved expression (C116^3.27L) and one for the removal of a palmitoylation site (C358^8.53A).\nThe CL2 loop has been proposed to function as the switch enabling G protein activation (Burstein et al 1998) and, from the β1 structure, it is clear that this region also has an important contact to the adjacent highly conserved D^3.49R^3.50Y^3.51 motif in helix 3. […] This is mainly due to the increased distance between the Cα atoms of Arg^3.50 and Glu^6.30 in β1 (10.9 Å) and β2 (11.2 Å) compared with rhodopsin (8.7 Å). There is, however, an intrahelical interaction between Asp^3.49 and […] of the DRY motif in all three […] structures. The helical conformation of CL2 in the β1 structure positions Tyr149^3.89 sufficiently close to Asp138^3.49 of the DRY motif to allow the formation of a H-bond. Supporting evidence for this structural role of Tyr149^3.89 comes from the observation that the Y149A mutation makes β1AR much less thermally stable (Table 3). The equivalent Tyr141^3.60 in both β2 structures is in a cavity between helix 3, 4 and 6, but the biological relevance of this is unclear, due to the perturbations in this region caused by either the T4 lysozyme fusion or by the bound antibody Fab."}},
  "data": [
    {"molecule": "Cc1ccc(OCC(O)C(C)NC(C)C)c2c1CCC2", "note": "(stereo not shown) [ICI 118551]", "values": [
      {"measurement": "effect on cAMP accumulation by m23", "setting": "m23 mutant receptor", "value": "does not depress the cAMP accumulation"}
    ]},
    {"molecule": "CC(C)(C)NCC(O)COc1cccc2[nH]c(C#N)cc12", "note": "(stereo not shown) [cyanopindolol]", "values": [
      {"measurement": "solubility", "setting": "physchem", "value": 750, "unit": "µM"}
    ]},
    {"molecule": "F147A: β1AR point mutant F147A", "values": [
      {"measurement": "Stability (wild type = 100)", "setting": "[1]", "value": 128}
    ]},
    {"molecule": "P146A: β1AR point mutant P146A", "values": [
      {"measurement": "Stability (wild type = 100)", "setting": "[1]", "value": 13}
    ]},
    {"molecule": "Q150A: β1AR point mutant Q150A", "values": [
      {"measurement": "Stability (wild type = 100)", "setting": "[1]", "value": 117}
    ]},
    {"molecule": "R148A: β1AR point mutant R148A", "values": [
      {"measurement": "Stability (wild type = 100)", "setting": "[1]", "value": 89}
    ]},
    {"molecule": "S145A: β1AR point mutant S145A", "values": [
      {"measurement": "Stability (wild type = 100)", "setting": "[1]", "value": 68}
    ]},
    {"molecule": "S151A: β1AR point mutant S151A", "values": [
      {"measurement": "Stability (wild type = 100)", "setting": "[1]", "value": 117}
    ]},
    {"molecule": "T144A: β1AR point mutant T144A", "values": [
      {"measurement": "Stability (wild type = 100)", "setting": "[1]", "value": 72}
    ]},
    {"molecule": "Y149A: β1AR point mutant Y149A, much less thermally stable", "values": [
      {"measurement": "Stability (wild type = 100)", "setting": "[1]", "value": 1}
    ]}
  ]
}
